The values that follow come from article PMC5606850, “Acidic C-terminal domains autoregulate the RNA chaperone Hfq” (eLife, 2017).

This series in a line: SDS-PAGE oligomerization of purified Hfq variants. Type of series: physicochemical, E. coli. The conditions noted are these: 4–20% SDS-PAGE, ~2.8 µg protein, 2% SDS, boiled. As for the experimental part:
Figure 2. CTD and RNA occupy the same rim binding site. […] The CTD linker is shown in purple, the acidic tip in red and the N-terminal FITC as a yellow star. Hfq core is shown in cyan, with basic rim patches in dark blue. […] (C) Reaction scheme for annealing an RNA molecular beacon to a target RNA (open bar) ([Hopkins et al., 2011]; [Panja et al., 2015]). (D) Progress curves for annealing 50 nM molecular beacon and 100 nM Target by 50 nM Hfq65 hexamer at 30°C, measured by stopped-flow fluorescence. See Figure 2—figure supplement 3 for further data. (E) Contribution of core residues to CTD binding. Interaction energy (Expected Energetic Contribution; EEC) in silico for a core residue in the Rosetta models (solid symbols and solid line; adjusted R^2 = 0.77) or the average annealing rates for Target and Target-A18 relative to Hfq65 (open symbols and dashed line; adjusted R^2 = 0.94) versus experimental CTD binding energy (∆∆G°) for each Hfq65 variant. The binding energy, ∆∆G° = –RTln(Kd^MUT/Kd), reflects the perturbation to CTD binding by a mutation in Hfq65. The interaction energy in silico or EEC is defined as the average energy of a tail–core interaction multiplied by the average number of tail–core interactions per model (Figure 1B, top and Equation 3). The relative annealing rate for Hfq65 variants, krel = kobs^MUT/kobs^WT, is <1 if the mutated residue is important for RNA annealing. Figure 2—figure supplement 1. SDS-PAGE of purified Hfq variants. WT Hfq assembles into hexamers and dodecamers that are stable to SDS-PAGE, which can be used to evaluate the oligomerization of Hfq variants. Purified Hfq protein (~2.8 µg) was separated on a 4–20% SDS-PAGE gel and stained with Coomassie blue (lanes 2–6). Samples were prepared in 2% SDS and boiled before loading. Lane 1, Protein standards (10 µL All Blue Precision Plus, […]). […] Annealing of 100 nM Target RNA to 50 nM beacon RNA by Hfq65 and Hfq65 variants was measured by stopped flow fluorescence at 30°C in 1 × TNK buffer. […] The change in fluorescence emission intensity was normalized to the maximum fluorescence within an experiment. […]

In the case of “Hfq65: truncated E. coli Hfq variant lacking the CTD”, the “oligomeric state on SDS-PAGE” value is reported as “form hexamers with slightly different stabilities”.

In the case of Hfq102: full-length E. coli Hfq, the “oligomeric state on SDS-PAGE” value is “migrates as a dodecamer (red dot) and monomer (green dot) with no visible hexamer band”.
